In US9969998B2, “Compositions of adenosine deaminase-2 (ADA2), variants thereof and methods of using same” (Halozyme, Inc., priority 2014, dated 2018):

Tests used:
[1] = mouse, in vivo, iv, 7.5 mg/kg
Description: Fifty four (54) male BALB/c mice were divided into six (6) dosing groups, and were further divided into three (3) groups each for sampling of blood at different time points. Thus, the mice were randomized into eighteen (18) groups total. Mice were weighed prior to the start of the study, and randomized into the 18 groups based upon their body weights. In each sampling group, three groups of (3) mice were used for dosing each test article to prevent oversampling of the blood from the animals. For measurement of baseline ADA2 levels, a blood sample was obtained from 12 randomly chosen mice and plasma was prepared using the anti-coagulant potassium (K3) ethylene diamine tetraacetic acid (K3-EDTA). All blood was collected by submandibular venipuncture.
Each mouse was injected by intravenous tail-vein injection with a 7.5 mg/kg dose of one of six ADA2 test article as set forth in Table 24, i.e. rHuADA2-K374D (K371D by mature numbering), PEG-rHuADA2-K374D (PEG-K371D by mature numbering), rHuADA2-R23E (R20E by mature numbering), PEG-rHuADA2-R23E (PEG-R20E by mature numbering), or WT ADA2 and PEG-WT ADA2.
Blood was collected at designated sampling time points from appropriate groups of mice as indicated below in Table 24 and kept on ice until plasma preparation. Plasma was prepared by centrifuging the blood (500×g for 5 min at 4° C.), transferring the plasma to a fresh tube and immediately freezing at −80° C. until the adenosine deaminase activity assay. Adenosine deaminase activity was determined as described in Example 4. The half-life, or time taken for the activity of ADA2 proteins to be reduced by half, was calculated. Also, total exposure was measured by calculating the Area Under the Concentration-time Curve (AUC).

[2] = Heparin binding capture ELISA (biotin-heparin on streptavidin plate); details: PEGylated and non-PEGylated forms (Table 22)
Procedure: Heparin binding of PEGylated rHuADA2 or variants was assessed by capture ELISA. Binding of rHuADA1 was assessed as a negative control. 100 μL of 0.2 mg/mL biotin-heparin (Sigma-Aldrich, St. Louis, Mo.; Cat No. B9806-10MG) was added to a streptavidin coated 96-well plate (Thermo Fisher Scientific, Rockford, Ill.; Cat. No. 15520), and incubated at room temperature for 1 hour. The plate was washed 6 times with PBS. Then, 150 μL of […] rHuADA2 was added to the heparin coated plate, titrated in 3× serial dilutions, and incubated at room temperature for 2 hours. The plate was then washed 6 times with PBS. A 1000× dilution of goat HRP-anti-FLAG pAb (Abcam, Cambridge, UK; Cat. No. Ab1238) was added to the ELISA plate and incubated at room temperature for 1 hour. The ELISA plate was then washed 6 times with phosphate buffered saline with Tween (PBST) and developed with the 3,3′,5,5′-Tetramethylbenzidine (TMB) substrate solution (Pierce, Thermo Fisher Scientific, Rockford, Ill.) according the manufacturer's instructions and reading the optical density at 450 nm (OD450) on a plate reader.

[3] = Heparin binding ELISA (heparin coated microtiter plate); details: for Average OD450, heparin binding ELISA: Set 1, 3 μM protein; for Heparin Binding ELISA Average OD450: single and S265N combination variants (Table 34)
How it was run: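 Plates coated with 200 μg/mL heparin in Na2CO3 buffer pH 9.6 overnight at 4° C, then milk-blocked. FLAG-tagged rHuADA2 variants added at 3 μM for 2 h at room temperature. Bound protein detected with HRP-anti-FLAG and TMB, read as OD450.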

[4] = Spectrophotometric adenosine deaminase assay at varying pH (pH optimum); assay type: biochemical
Procedure: Adenosine deaminase activity of rHuADA2 and variants at varying pH were assessed to determine the pH optimum of each. The adenosine deaminase activity was determined spectrophotometrically by direct measurement of changes in adenosine absorbance. […] During the deamination reaction, the absorbance of ADO decreases while that of INO increases with time. Since the dynamic changes in absorbance make it difficult to monitor activity at a single wavelength, the relative ADO activity was determined as a ratio of the ADO peak to isobestic point (i.e. the wavelength where ADO and INO have the same extinction coefficient). The isobestic point, which is 253 nm, remains unchanged and is concentration independent, so that it is the reference point to correct for volume or intensity discrepancies.
To construct the standard curve for ADO and INO, a series of solution mixtures in 0.001% Tween-20 containing different concentrations of ADO and INO were prepared. The total concentration of ADO and INO mix was 50 μM, in 1×PBS (10 mM phosphate, 137 mM NaCl, 2.7 mM KCl), pH 7.4. The samples were scanned with the wavelengths between 220 nm and 300 nm to determine the isosbestic point, where all spectra cross.
For performing the spectrophotometric adenosine deaminase assay of ADA2 and variants, a 2× solution containing 10 mM ADO in 100 mM potassium phosphate buffer (KPB), 0.1% Tween-20 at different pHs (i.e. 5.5, 6, 6.5, 6.75, 7, 7.25, 7.4, 7.75 and 8) were prepared. A separate 2× solution containing 2 μg/mL WT rHuADA2 or variants were prepared in the same 100 mM potassium phosphate buffer (KPB), 0.1% Tween-20 at the respective pH (i.e. 5.5, 6, 6.5, 6.75, 7, 7.25, 7.4, 7.75 and 8). An equal volume of the ADO solution and the ADA2 solution (wildtype or variants) were mixed to initiate reaction. At each time point (i.e. 1, 3, 5, 7, 9, 11, 13 and 15 min), a small aliquot (4 μl) was removed and diluted 50 times by adding to 196 μl 1×PBS, pH 7.4. The diluted samples were further diluted 2 fold (in duplicates) by adding 85 μl samples to 85 μl 1×PBS in a UV-transparent half area plate. The absorbance at 253 nm and 261 nm were measured of each diluted sample.
Adenosine concentration was determined using the A261/A253 ratio and the standard curve. Adenosine deaminase activity was measured by negative change in ADO concentration per min×100.

[5] = Heparin-affinity chromatography (heparin-Sepharose, SDS-PAGE); assay type: binding; details: for Heparin Column Binding: compared to WT rHuADA2, 0.3 mg/mL protein
Procedure: To assess binding of variants to heparin, heparin-affinity chromatography was employed to identify heparin-bound variants. Heparin binding was tested by mixing 35 μL of rHuADA2 WT and variants with 20 μL heparin-Sepharose™ resin (GE Healthcare, Pittsburgh, Pa.; Cat. No. 17-0998-01), followed by incubating at room temperature for 30 min. The mixture was then centrifuged through a 0.22 μm centrifuge filter and the flow-through, containing the unbound protein, was collected for analysis on an SDS-PAGE gel. 35 μL of 1.5 M NaCl was added to heparin-Sepharose resin and incubated at room temperature (RT) for 10 min to elute the remaining heparin-bound protein from the heparin-Sepharose. Samples of purified WT rHuADA2 and tested variants, before and after mixing with the heparin-Sepharose resin, were analyzed by SDS-PAGE to compare the degree of heparin binding.

Molecule	AUC (mU * h)/mL [1]	Half life slow (t1/2) [1] [h]	Percent increase in AUC compared to WT ADA2 [1] [%]	Percent increase in t1/2 compared to WT ADA2 [1] [%]	Average OD450, heparin binding capture ELISA [2]	binding to heparin-coated plates compared to WT ADA2 [3]	Average OD450, heparin binding ELISA [3]	Heparin Binding ELISA Average OD450 [3]	Adenosine deaminase activity Δ [ADO]/min × (−100) ([4]; pH 5.5)	Adenosine deaminase activity Δ [ADO]/min × (−100) ([4]; pH 6)	Adenosine deaminase activity Δ [ADO]/min × (−100) ([4]; pH 6.5)	Adenosine deaminase activity Δ [ADO]/min × (−100) ([4]; pH 6.75)	Adenosine deaminase activity Δ [ADO]/min × (−100) ([4]; pH 7)	Adenosine deaminase activity Δ [ADO]/min × (−100) ([4]; pH 7.25)	Adenosine deaminase activity Δ [ADO]/min × (−100) ([4]; pH 7.4)	Adenosine deaminase activity Δ [ADO]/min × (−100) ([4]; pH 7.75)	Adenosine deaminase activity Δ [ADO]/min × (−100) ([4]; pH 8)	heparin binding compared to WT [5]	Heparin Column Binding [5]	pH optimum (highest deaminase activity) ([4]; pH 5.5 to 8, 5 mM ADO)
K374D: ADA2 variant SEQ ID NO:20 (protein, human ADA2 K371D, mature numbering) IDETRAHLLLKEKMMRLGGRLVLNTKEELANERLMTLKIAEMKEAMRTLIFPPSMHFFQAKHLIERSQVFNILRMMPKGAALHLHDIGIVTMDWLVRNVTYRPHCHICFTPRGIMQFRFAHPTPRPSEKCSKWILLEDYRKRVQNVTEFDDSLLRNFTLVTQHPEVIYTNQNVVWSKFETIFFTISGLIHYAPVFRDYVFRSMQEFYEDNVLYMEIRARLLPVYELSGEHHDEEWSVKTYQEVAQKFVETHPEFIGIKIIYSDHRSKDVAVIAESIRMAMGLRIKFPTVVAGFDLVGHEDTGHSLHDYKEALMIPAKDGVKLPYFFHAGETDWQGTSIDRNILDALMLNTTRIGHGFALSKHPAVRTYSWDKDIPIEVCPISNQVLKLVSDLRNHPVATLMATGHPMVISSDDPAMFGAKGLSYDFYEVFMGIGGMKADLRTLKQLAMNSIKYSTLLESEKNTFMEIWKKRWDKFIADVATK	74,983 (mU * h)/mL	3.8	128	230	0.87	attenuated binding to heparin	0.15	0.87	12.19	10.68	14.22	12.90	13.22	12.86	10.55	1.55	3.46	attenuated heparin binding	Reduced	
K374E: ADA2 variant SEQ ID NO:21 (protein, human ADA2 K371E, mature numbering) IDETRAHLLLKEKMMRLGGRLVLNTKEELANERLMTLKIAEMKEAMRTLIFPPSMHFFQAKHLIERSQVFNILRMMPKGAALHLHDIGIVTMDWLVRNVTYRPHCHICFTPRGIMQFRFAHPTPRPSEKCSKWILLEDYRKRVQNVTEFDDSLLRNFTLVTQHPEVIYTNQNVVWSKFETIFFTISGLIHYAPVFRDYVFRSMQEFYEDNVLYMEIRARLLPVYELSGEHHDEEWSVKTYQEVAQKFVETHPEFIGIKIIYSDHRSKDVAVIAESIRMAMGLRIKFPTVVAGFDLVGHEDTGHSLHDYKEALMIPAKDGVKLPYFFHAGETDWQGTSIDRNILDALMLNTTRIGHGFALSKHPAVRTYSWEKDIPIEVCPISNQVLKLVSDLRNHPVATLMATGHPMVISSDDPAMFGAKGLSYDFYEVFMGIGGMKADLRTLKQLAMNSIKYSTLLESEKNTFMEIWKKRWDKFIADVATK						attenuated binding to heparin	0.11	0.03	15.76	19.15	27.09	25.72	24.63	21.88	18.32	5.98	4.25	attenuated heparin binding	Reduced	
S265N: ADA2 variant SEQ ID NO:54 (protein, human ADA2 S262N, mature numbering) IDETRAHLLLKEKMMRLGGRLVLNTKEELANERLMTLKIAEMKEAMRTLIFPPSMHFFQAKHLIERSQVFNILRMMPKGAALHLHDIGIVTMDWLVRNVTYRPHCHICFTPRGIMQFRFAHPTPRPSEKCSKWILLEDYRKRVQNVTEFDDSLLRNFTLVTQHPEVIYTNQNVVWSKFETIFFTISGLIHYAPVFRDYVFRSMQEFYEDNVLYMEIRARLLPVYELSGEHHDEEWSVKTYQEVAQKFVETHPEFIGIKIIYNDHRSKDVAVIAESIRMAMGLRIKFPTVVAGFDLVGHEDTGHSLHDYKEALMIPAKDGVKLPYFFHAGETDWQGTSIDRNILDALMLNTTRIGHGFALSKHPAVRTYSWKKDIPIEVCPISNQVLKLVSDLRNHPVATLMATGHPMVISSDDPAMFGAKGLSYDFYEVFMGIGGMKADLRTLKQLAMNSIKYSTLLESEKNTFMEIWKKRWDKFIADVATK						attenuated binding to heparin coated plates		0.88	24.61	31.59	41.30	44.46	45.16	50.99	45.81	25.16	3.70			7.25
PEG-K374D: rHuADA2-K374D (SEQ ID NO:20) PEGylated on surface exposed lysines with linear PEG-20K (conjugate, linear PEG-20K on surface lysines; human ADA2 K371D, mature numbering) IDETRAHLLLKEKMMRLGGRLVLNTKEELANERLMTLKIAEMKEAMRTLIFPPSMHFFQAKHLIERSQVFNILRMMPKGAALHLHDIGIVTMDWLVRNVTYRPHCHICFTPRGIMQFRFAHPTPRPSEKCSKWILLEDYRKRVQNVTEFDDSLLRNFTLVTQHPEVIYTNQNVVWSKFETIFFTISGLIHYAPVFRDYVFRSMQEFYEDNVLYMEIRARLLPVYELSGEHHDEEWSVKTYQEVAQKFVETHPEFIGIKIIYSDHRSKDVAVIAESIRMAMGLRIKFPTVVAGFDLVGHEDTGHSLHDYKEALMIPAKDGVKLPYFFHAGETDWQGTSIDRNILDALMLNTTRIGHGFALSKHPAVRTYSWDKDIPIEVCPISNQVLKLVSDLRNHPVATLMATGHPMVISSDDPAMFGAKGLSYDFYEVFMGIGGMKADLRTLKQLAMNSIKYSTLLESEKNTFMEIWKKRWDKFIADVATK	2,725,000 (mU * h)/mL	21.75	8187	1791	0.15															
